From publication PMC11861601 (2025)
Where two headings read alike, the source gives them in different places.

T1: His-tagged full-length N-MYC (human, UniProt P04198 1-464)
T1 chain: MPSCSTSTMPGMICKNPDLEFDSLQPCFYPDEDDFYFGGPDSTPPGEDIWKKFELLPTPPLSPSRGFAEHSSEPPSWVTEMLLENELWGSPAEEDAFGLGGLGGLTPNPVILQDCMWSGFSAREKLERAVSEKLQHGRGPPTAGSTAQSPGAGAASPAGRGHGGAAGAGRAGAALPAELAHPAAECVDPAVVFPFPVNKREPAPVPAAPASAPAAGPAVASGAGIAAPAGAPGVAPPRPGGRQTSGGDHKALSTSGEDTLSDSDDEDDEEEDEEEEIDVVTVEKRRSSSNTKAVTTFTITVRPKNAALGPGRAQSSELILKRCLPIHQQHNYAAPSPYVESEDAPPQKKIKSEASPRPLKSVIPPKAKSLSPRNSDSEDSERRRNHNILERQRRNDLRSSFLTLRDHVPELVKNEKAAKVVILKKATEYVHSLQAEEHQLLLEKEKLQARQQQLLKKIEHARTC


How the values were obtained:
His-tagged MAX [1] = molecular target: T2, His-tagged MAX (human, UniProt P61244 1-160); assay: SPR
T2 sequence (P61244 whole entry): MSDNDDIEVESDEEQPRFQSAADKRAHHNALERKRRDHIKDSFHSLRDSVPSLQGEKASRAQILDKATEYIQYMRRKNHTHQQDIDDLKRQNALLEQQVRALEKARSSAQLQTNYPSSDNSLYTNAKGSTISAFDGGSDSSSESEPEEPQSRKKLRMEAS

His-tagged MAX [2] = molecular target: T2, His-tagged MAX; assay: SPR; repeat
[3] = molecular target: T1, His-tagged full-length N-MYC; assay: SPR
[4] = molecular target: T3, His-tagged full-length c-MYC (human, UniProt P01106-1 1-439); assay: SPR
T3 sequence (P01106 16-454): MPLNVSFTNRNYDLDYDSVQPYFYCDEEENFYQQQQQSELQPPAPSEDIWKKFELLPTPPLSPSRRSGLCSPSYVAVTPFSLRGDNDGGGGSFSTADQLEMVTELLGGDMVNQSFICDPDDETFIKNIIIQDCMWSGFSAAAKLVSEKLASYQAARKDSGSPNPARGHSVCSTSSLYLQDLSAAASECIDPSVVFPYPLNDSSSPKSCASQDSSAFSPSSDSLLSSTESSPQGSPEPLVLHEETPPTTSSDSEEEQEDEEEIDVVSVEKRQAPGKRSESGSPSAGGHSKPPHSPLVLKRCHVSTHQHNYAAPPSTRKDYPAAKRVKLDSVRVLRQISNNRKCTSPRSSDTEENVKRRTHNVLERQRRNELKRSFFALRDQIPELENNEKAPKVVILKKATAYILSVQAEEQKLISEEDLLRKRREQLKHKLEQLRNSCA

[5] = molecular target: His-tagged C-terminal c-MYC (human); assay: SPR
Sequence of His-tagged C-terminal c-MYC (human) (chain, as listed by the source): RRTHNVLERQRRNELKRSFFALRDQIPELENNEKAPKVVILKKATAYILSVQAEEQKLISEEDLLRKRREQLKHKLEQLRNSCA

[6] = molecular target: T3, His-tagged full-length c-MYC; assay: SPR; remark: listed apart in the source

Binder	Kd (His-tagged MAX [1]) [nM]	Kd (His-tagged MAX [2]) [nM]	Kd [3] [nM]	Kd [4] [nM]	Kd [5] [nM]	Kd [6] [nM]
Lon N-terminal domain peptide (aa 1-245) (domain or fragment) MNPERSERIEIPVLPLRDVVVYPHMVIPLFVGREKSIRCLEAAMDHDKKIMLVAQKEASTDEPGVNDLFTVGTVASILQMLKLPDGTVKVLVEGLQRARISALSDNGEHFSAKAEYLESPTIDEREQEVLVRTAISQFEGYIKLNKKIPPEVLTSLNSIDDPARLADTIAAHMPLKLADKQSVLEMSDVNERLEYLMAMMESEIDLLQVEKRIRNRVKKQMEKSQREYYLNEQMKAIQKELGEMD	294	1690	402	462	–	–
Lon N-terminal domain peptide (aa 1-245) (domain or fragment, His-tag omitted. The paper does not print the limits of Origene TP762404. Limits follow the paper's modelled C-terminal part, c-MYC aa 356-439 in 439-aa numbering, shifted by +15 to the 454-aa entry (bHLH-leucine zipper to the C-terminus). The bought construct may start earlier.) MNPERSERIEIPVLPLRDVVVYPHMVIPLFVGREKSIRCLEAAMDHDKKIMLVAQKEASTDEPGVNDLFTVGTVASILQMLKLPDGTVKVLVEGLQRARISALSDNGEHFSAKAEYLESPTIDEREQEVLVRTAISQFEGYIKLNKKIPPEVLTSLNSIDDPARLADTIAAHMPLKLADKQSVLEMSDVNERLEYLMAMMESEIDLLQVEKRIRNRVKKQMEKSQREYYLNEQMKAIQKELGEMD	–	–	–	–	495	–
recombinant Escherichia coli Lon protease (aa 1-778) (enzyme, His-tag omitted. The paper does not print the limits of Origene TP762404. Limits follow the paper's modelled C-terminal part, c-MYC aa 356-439 in 439-aa numbering, shifted by +15 to the 454-aa entry (bHLH-leucine zipper to the C-terminus). The bought construct may start earlier.) MNPERSERIEIPVLPLRDVVVYPHMVIPLFVGREKSIRCLEAAMDHDKKIMLVAQKEASTDEPGVNDLFTVGTVASILQMLKLPDGTVKVLVEGLQRARISALSDNGEHFSAKAEYLESPTIDEREQEVLVRTAISQFEGYIKLNKKIPPEVLTSLNSIDDPARLADTIAAHMPLKLADKQSVLEMSDVNERLEYLMAMMESEIDLLQVEKRIRNRVKKQMEKSQREYYLNEQMKAIQKELGEMDDAPDENEALKRKIDAAKMPKEAKEKAEAELQKLKMMSPMSAEATVVRGYIDWMVQVPWNARSKVKKDLRQAQEILDTDHYGLERVKDRILEYLAVQSRVNKIKGPILCLVGPPGVGKTSLGQSIAKATGRKYVRMALGGVRDEAEIRGHRRTYIGSMPGKLIQKMAKVGVKNPLFLLDEIDKMSSDMRGDPASALLEVLDPEQNVAFSDHYLEVDYDLSDVMFVATSNSMNIPAPLLDRMEVIRLSGYTEDEKLNIAKRHLLPKQIERNALKKGELTVDDSAIIGIIRYYTREAGVRGLEREISKLCRKAVKQLLLDKSLKHIEINGDNLHDYLGVQRFDYGRADNENRVGQVTGLAWTEVGGDLLTIETACVPGKGKLTYTGSLGEVMQESIQAALTVVRARAEKLGINPDFYEKRDIHVHVPEGATPKDGPSAGIAMCTALVSCLTGNPVRADVAMTGEITLRGQVLPIGGLKEKLLAAHRGGIKTVLIPFENKRDLEEIPDNVIADLDIHPVKRIEEVLTLALQNEPSGM	–	–	–	–	398	–
recombinant Escherichia coli Lon protease (aa 1-778) (enzyme) MNPERSERIEIPVLPLRDVVVYPHMVIPLFVGREKSIRCLEAAMDHDKKIMLVAQKEASTDEPGVNDLFTVGTVASILQMLKLPDGTVKVLVEGLQRARISALSDNGEHFSAKAEYLESPTIDEREQEVLVRTAISQFEGYIKLNKKIPPEVLTSLNSIDDPARLADTIAAHMPLKLADKQSVLEMSDVNERLEYLMAMMESEIDLLQVEKRIRNRVKKQMEKSQREYYLNEQMKAIQKELGEMDDAPDENEALKRKIDAAKMPKEAKEKAEAELQKLKMMSPMSAEATVVRGYIDWMVQVPWNARSKVKKDLRQAQEILDTDHYGLERVKDRILEYLAVQSRVNKIKGPILCLVGPPGVGKTSLGQSIAKATGRKYVRMALGGVRDEAEIRGHRRTYIGSMPGKLIQKMAKVGVKNPLFLLDEIDKMSSDMRGDPASALLEVLDPEQNVAFSDHYLEVDYDLSDVMFVATSNSMNIPAPLLDRMEVIRLSGYTEDEKLNIAKRHLLPKQIERNALKKGELTVDDSAIIGIIRYYTREAGVRGLEREISKLCRKAVKQLLLDKSLKHIEINGDNLHDYLGVQRFDYGRADNENRVGQVTGLAWTEVGGDLLTIETACVPGKGKLTYTGSLGEVMQESIQAALTVVRARAEKLGINPDFYEKRDIHVHVPEGATPKDGPSAGIAMCTALVSCLTGNPVRADVAMTGEITLRGQVLPIGGLKEKLLAAHRGGIKTVLIPFENKRDLEEIPDNVIADLDIHPVKRIEEVLTLALQNEPSGM	164	174	332	382	–	–
Lon peptidase domain peptide (aa 581-778) (domain or fragment) VQRFDYGRADNENRVGQVTGLAWTEVGGDLLTIETACVPGKGKLTYTGSLGEVMQESIQAALTVVRARAEKLGINPDFYEKRDIHVHVPEGATPKDGPSAGIAMCTALVSCLTGNPVRADVAMTGEITLRGQVLPIGGLKEKLLAAHRGGIKTVLIPFENKRDLEEIPDNVIADLDIHPVKRIEEVLTLALQNEPSGM	–	–	–	–	–	849
Lon AAA+ domain peptide (aa 241-584) (domain or fragment) LGEMDDAPDENEALKRKIDAAKMPKEAKEKAEAELQKLKMMSPMSAEATVVRGYIDWMVQVPWNARSKVKKDLRQAQEILDTDHYGLERVKDRILEYLAVQSRVNKIKGPILCLVGPPGVGKTSLGQSIAKATGRKYVRMALGGVRDEAEIRGHRRTYIGSMPGKLIQKMAKVGVKNPLFLLDEIDKMSSDMRGDPASALLEVLDPEQNVAFSDHYLEVDYDLSDVMFVATSNSMNIPAPLLDRMEVIRLSGYTEDEKLNIAKRHLLPKQIERNALKKGELTVDDSAIIGIIRYYTREAGVRGLEREISKLCRKAVKQLLLDKSLKHIEINGDNLHDYLGVQRF	–	–	–	–	–	534
